Source: IntAct's records for PubMed 22000412

Target: bub1b_human BUB1B (UniProt O60566)
Sequence (O60566 whole entry): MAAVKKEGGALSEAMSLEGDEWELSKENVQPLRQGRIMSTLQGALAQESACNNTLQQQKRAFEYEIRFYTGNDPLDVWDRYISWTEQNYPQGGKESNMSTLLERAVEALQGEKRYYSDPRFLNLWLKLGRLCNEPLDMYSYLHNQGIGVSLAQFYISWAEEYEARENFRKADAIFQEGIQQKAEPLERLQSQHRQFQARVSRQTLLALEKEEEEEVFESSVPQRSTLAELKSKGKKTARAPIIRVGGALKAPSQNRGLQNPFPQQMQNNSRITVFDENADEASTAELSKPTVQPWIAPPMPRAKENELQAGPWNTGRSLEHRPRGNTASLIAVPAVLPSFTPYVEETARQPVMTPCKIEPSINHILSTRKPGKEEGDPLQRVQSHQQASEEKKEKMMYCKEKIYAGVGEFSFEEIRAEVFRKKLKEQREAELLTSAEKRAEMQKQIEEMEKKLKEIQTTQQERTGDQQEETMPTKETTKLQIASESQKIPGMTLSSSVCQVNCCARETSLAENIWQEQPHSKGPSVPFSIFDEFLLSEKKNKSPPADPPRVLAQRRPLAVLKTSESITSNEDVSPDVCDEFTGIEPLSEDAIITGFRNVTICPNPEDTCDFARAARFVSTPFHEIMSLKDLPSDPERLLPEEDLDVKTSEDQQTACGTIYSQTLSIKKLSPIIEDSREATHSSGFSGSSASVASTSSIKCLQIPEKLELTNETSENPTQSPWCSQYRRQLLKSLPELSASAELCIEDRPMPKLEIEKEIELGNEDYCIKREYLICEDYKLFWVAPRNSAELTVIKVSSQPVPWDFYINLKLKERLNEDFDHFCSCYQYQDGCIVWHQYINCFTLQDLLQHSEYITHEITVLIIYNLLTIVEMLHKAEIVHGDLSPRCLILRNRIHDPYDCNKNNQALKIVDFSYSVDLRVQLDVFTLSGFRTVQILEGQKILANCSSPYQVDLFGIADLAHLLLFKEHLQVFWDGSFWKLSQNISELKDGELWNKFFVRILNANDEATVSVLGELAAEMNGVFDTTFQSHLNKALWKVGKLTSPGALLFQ

Row | effect of a mutation on the interaction | Substance
1 | disrupting interaction | Outer kinetochore KNL1 complex subunit KNL1 (Homo sapiens), Q8NG31-2 I213A;F215A;F218A
2 | disrupting interaction | Outer kinetochore KNL1 complex subunit KNL1 (Homo sapiens), Q8NG31-2 F215A;F218A
3 | disrupting interaction | Outer kinetochore KNL1 complex subunit KNL1 (Homo sapiens), Q8NG31-2 F215A;I219A
